Reference: US6790610B2, “Alzheimer's disease, secretase, APP substrates therefor, and uses therefor” (Pharmacia & Upjohn Company, priority 1998, dated 2004)
Where a SMILES comes first, the peptide text is derived from it. [ ]: non-standard residue; d: D form. The star is where a group is joined. Sta = CC(C)C[C@H](N)[C@@H](O)CC(=O)O; Isovaleryl = CC(C)CC(=O)*

Columns and labels:
[1] = target: T1, Recombinant human Asp2(a) (Homo sapiens, UniProt P56817); experiment: β-Secretase assay with synthetic peptide substrates (RP-HPLC); assay type: biochemical
T1 construct: made in house; β-octylglucoside membrane extract purified over Mono Q and Mono S
T1 sequence (P56817 46-501): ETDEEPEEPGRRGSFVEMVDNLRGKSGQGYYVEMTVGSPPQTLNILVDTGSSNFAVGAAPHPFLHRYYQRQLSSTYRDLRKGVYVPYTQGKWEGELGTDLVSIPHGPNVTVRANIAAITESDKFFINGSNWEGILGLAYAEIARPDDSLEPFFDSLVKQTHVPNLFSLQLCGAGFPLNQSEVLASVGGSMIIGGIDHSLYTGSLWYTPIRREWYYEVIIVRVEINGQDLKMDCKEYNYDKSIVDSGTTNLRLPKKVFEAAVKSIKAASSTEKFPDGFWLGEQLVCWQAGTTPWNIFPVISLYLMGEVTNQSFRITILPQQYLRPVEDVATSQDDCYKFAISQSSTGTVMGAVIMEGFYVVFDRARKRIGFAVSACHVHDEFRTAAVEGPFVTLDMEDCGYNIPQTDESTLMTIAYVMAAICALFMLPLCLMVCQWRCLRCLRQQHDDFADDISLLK
Experimental: Recombinant human Asp2(a) prepared in CHO cells and purified as described in Example 11 was used to assay Asp2(a) proteolytic activity directly. Activity assays for Asp2(a) were performed using synthetic peptide substrates containing either the wild-type APP β-secretase site (SEVKM ↓DAEFR; SEQ ID NO: 64), the Swedish KM→NL mutation (SEVNL↓DAEFR; SEQ ID NO: 63), or the Aβ40 and 42 γ-secretase sites (RRGGVV↓IA↓TVIVGER; SEQ ID NO: 65). Reactions were performed in 50 mM 2-[N-morpholino]ethane-sulfonate (“Na-MES,” pH 5.5) containing 1% β-octylglucoside, […] peptide substrate, and recombinant Asp2(a) (1-5 μg protein) for various times at 37° C. The reaction products were quantified by RP-HPLC using a linear gradient from 0-70 B over 30 minutes (A=0.1% TFA in water, B=0.1% TFA/10% water/90% AcCN). The elution profile was monitored by absorbance at 214 nm. […] Percent hydrolysis of the peptide substrate was calculated by comparing the integrated peak areas for the two product peptides and the starting material derived from the absorbance at 214 nm. […]
The specificity of the protease cleavage reaction was determined by performing the β-secretase assay in the presence of 8 μM pepstatin A and the presence of a cocktail of protease inhibitors (10 μM leupeptin, 10 μM E64, and 5 mM EDTA). […]

Hu-Asp2(b) = target: T2, Hu-Asp2(b) (Homo sapiens, UniProt P56817); experiment: β-Secretase proteolysis assay with Hu-Asp2(b); assay type: biochemical; conditions: identical assay conditions to Asp2(a)
T2 construct: made in house; host or cells: CHO-K1 transfected with pcDNA3.1(+)Hygro/Hu-Asp2(b); β-octylglucoside extract purified over Mono Q and Mono S
T2 sequence (P56817 46-476 isoform P56817-2): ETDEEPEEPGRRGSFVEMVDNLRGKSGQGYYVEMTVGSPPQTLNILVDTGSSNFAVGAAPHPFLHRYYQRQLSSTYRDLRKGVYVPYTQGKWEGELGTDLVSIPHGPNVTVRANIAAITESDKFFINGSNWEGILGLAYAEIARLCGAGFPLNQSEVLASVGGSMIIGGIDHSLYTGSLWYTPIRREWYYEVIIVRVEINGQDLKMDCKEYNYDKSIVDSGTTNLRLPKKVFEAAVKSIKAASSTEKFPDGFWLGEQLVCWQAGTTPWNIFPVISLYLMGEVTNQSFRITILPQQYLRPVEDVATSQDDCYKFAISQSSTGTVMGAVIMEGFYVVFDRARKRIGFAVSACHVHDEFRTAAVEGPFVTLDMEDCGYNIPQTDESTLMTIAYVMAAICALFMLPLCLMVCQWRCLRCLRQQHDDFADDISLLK
Experimental: Recombinant human Asp2(a) prepared in CHO cells and purified as described in Example 11 was used to assay Asp2(a) proteolytic activity directly. Activity assays for Asp2(a) were performed using synthetic peptide substrates containing either the wild-type APP β-secretase site (SEVKM ↓DAEFR; SEQ ID NO: 64), the Swedish KM→NL mutation (SEVNL↓DAEFR; SEQ ID NO: 63), or the Aβ40 and 42 γ-secretase sites (RRGGVV↓IA↓TVIVGER; SEQ ID NO: 65). Reactions were performed in 50 mM 2-[N-morpholino]ethane-sulfonate (“Na-MES,” pH 5.5) containing 1% β-octylglucoside, […] peptide substrate, and recombinant Asp2(a) (1-5 μg protein) for various times at 37° C. The reaction products were quantified by RP-HPLC using a linear gradient from 0-70 B over 30 minutes (A=0.1% TFA in water, B=0.1% TFA/10% water/90% AcCN). The elution profile was monitored by absorbance at 214 nm. In preliminary experiments, the two product peaks which eluted before the intact peptide substrate, were confirmed to have the sequence DAEFR (SEQ ID NO: 72)and SEVNL (SEQ.ID NO: 73) using both Edman sequencing and MADLI-TOF mass spectrometry. Percent hydrolysis of the peptide substrate was calculated by comparing the integrated peak areas for the two product peptides and the starting material derived from the absorbance at 214 nm. […]

proteolysis relative to wild type APP peptide ([1]; after 6 hours, pH 5.5, 37° C.) | cleavage of peptide substrate (Hu-Asp2(b)) | sensitivity of proteolytic activity to inhibitor ([1]; 8 μM pepstatin A) | Compound
about 10 fold | cleaves |  | SEVNLDAEFR (OTHER INFORMATION: Description of Artificial Sequence: synthetic) [Swedigh β-secretase peptide, synthetic peptide substrate containing the Swedish KM→NL mutation of the APP β-secretase site]
 |  | insensitive | CC(C)CC(=O)N[C@H](C(=O)N[C@H](C(=O)N[C@@H](CC(C)C)[C@@H](O)CC(=O)N[C@@H](C)C(=O)N[C@@H](CC(C)C)[C@@H](O)CC(=O)O)C(C)C)C(C)C [pepstatin A] (Isovaleryl-VV[Sta]A[Sta]-OH)
